Test results taken from the supplement of paper PMC11246515.
± gives the standard deviation of the averaged measurements.

Assay: total protein half-life in vivo (active degradation + dilution); higher = more stable protein
[1] = E. coli NCM3722 delta-clpP delta-lon delta-hslV, growth: N-lim chemostat, doubling time 6 h
[2] = E. coli NCM3722 delta-clpP, growth: N-lim chemostat, doubling time 6 h
[3] = E. coli NCM3722 delta-hslV, growth: N-lim chemostat, doubling time 6 h
[4] = E. coli NCM3722 delta-smpB, growth: N-lim chemostat, doubling time 6 h
[5] = wild type E. coli NCM3722, growth: C-lim chemostat, doubling time 3 h
[6] = wild type E. coli NCM3722, growth: C-lim chemostat, doubling time 6 h
[7] = wild type E. coli NCM3722, growth: C-lim chemostat, doubling time 12 h
[8] = wild type E. coli NCM3722, growth: N-lim chemostat, doubling time 6 h
[9] = wild type E. coli NCM3722, growth: N-lim chemostat, doubling time 12 h
[10] = wild type E. coli NCM3722, growth: P-lim chemostat, doubling time 6 h
[11] = wild type E. coli NCM3722, growth: P-lim chemostat, doubling time 12 h
[12] = E. coli NCM3722 delta-lon, growth: N-lim chemostat, doubling time 6 h

Sequence | total protein half-life in vivo [1] | total protein half-life in vivo [2] | total protein half-life in vivo [3] | total protein half-life in vivo [4] | total protein half-life in vivo [5] | total protein half-life in vivo [6] | total protein half-life in vivo [7] | total protein half-life in vivo [8] | total protein half-life in vivo [9] | total protein half-life in vivo [10] | total protein half-life in vivo [11] | total protein half-life in vivo [12]
MNKAKRLEILTRLRENNPHPTTELNFSSPFELLIAVLLSAQATDVSVNKATAKLYPVANTPAAMLELGVEGVKTYIKTIGLYNSKAENIIKTCRILLEQHNGEVPEDRAALEALPGVGRKTANVVLNTAFGWPTIAVDTHIFRVCNRTQFAPGKNVEQVEEKLLKVVPAEFKVDCHHWLILHGRYTCIARKPRCGSCIIEDLCEYKEKVDI [P0AB83] | 5.59 ± 0.65 h | 5.67 ± 0.41 h | 5.9 ± 0.36 h | 5.611 ± 0.039 h | 3.22 ± 0.093 h | 5.58 ± 0.078 h | 10.7 ± 0.51 h | 5.79 ± 0.092 h | 11.95 ± 0.045 h | 5.88 ± 0.55 h | 10.9 ± 0.86 h | 
MNKETQPIDRETLLKEANKIIREHEDTLAGIEATGVTQRNGVLVFTGDYFLDEQGLPTAKSTAVFNMFKHLAHVLSEKYHLVD [P0AB61] | 5.24 ± 0.27 h | 3.59 h | 3.12 ± 0.036 h | 2.91 ± 0.23 h | 2.64 h | 4.89 ± 0.3 h | 9.62 ± 3.9 h | 2.5 ± 0.063 h | 4.72 h | 6.02 h |  | 3.65 ± 0.14 h
MNKFEDIRGVAFDLDGTLVDSAPGLAAAVDMALYALELPVAGEERVITWIGNGADVLMERALTWARQERATQRKTMGKPPVDDDIPAEEQVRILRKLFDRYYGEVAEEGTFLFPHVADTLGALQAKGLPLGLVTNKPTPFVAPLLEALDIAKYFSVVIGGDDVQNKKPHPDPLLLVAERMGIAPQQMLFVGDSRNDIQAAKAAGCPSVGLTYGYNYGEAIDLSQPDVIYQSINDLLPALGLPHSENQESKND | 3.53 ± 0.37 h | 3.12 ± 0.096 h | 2.83 h | 3.05 ± 0.14 h | 3.21 ± 0.34 h | 5.56 ± 0.92 h | 8.69 ± 0.53 h | 2.87 ± 0.17 h | 4.01 ± 0.23 h | 4.14 ± 1 h | 10.5 ± 1.2 h | 4.24 ± 1.1 h
MNKIFSSHVMPFRALIDACWKEKYTAARFTRDLIAGITVGIIAIPLAMALAIGSGVAPQYGLYTAAVAGIVIALTGGSRFSVSGPTAAFVVILYPVSQQFGLAGLLVATLLSGIFLILMGLARFGRLIEYIPVSVTLGFTSGIGITIGTMQIKDFLGLQMAHVPEHYLQKVGALFMALPTINVGDAAIGIVTLGILVFWPRLGIRLPGHLPALLAGCAVMGIVNLLGGHVATIGSQFHYVLADGSQGNGIPQLLPQLVLPWDLPNSEFTLTWDSIRTLLPAAFSMAMLGAIESLLCAVVLDGMTGTKHKANSELVGQGLGNIIAPFFGGITATAAIARSAANVRAGATSPISAVIHSILVILALLVLAPLLSWLPLSAMAALLLMVAWNMSEAHKVVDLLRHAPKDDIIVMLLCMSLTVLFDMVIAISVGIVLASLLFMRRIARMTRLAPVVVDVPDDVLVLRVIGPLFFAAAEGLFTDLESRLEGKRIVILKWDAVPVLDAGGLDAFQRFVKRLPEGCELRVCNVEFQPLRTMARAGIQPIPGRLAFFPNRRAAMADL [P0AFR2] | 5.99 ± 0.062 h | 6.21 ± 0.72 h | 5.51 h | 5.82 ± 0.46 h | 1.95 h | 6.39 ± 0.93 h | > 16 h | 6.43 ± 1.8 h | > 16 h |  | 7.77 h | 5.97 ± 0.73 h
MNKLIELRRAKRLALSLLLIAAATFVVTLFLPPNFWVSGVKAIAEAAMVGALADWFAVVALFRRVPIPIISRHTAIIPRNKDRIGENLGQFVQEKFLDTQSLVALIRRHEPALLIGNWFSQPENARRVGQHLLQIMSGFLELTDDARIQRLLKRAVHRAIDKVDLSGTSALMLESMTKNDRHQVLLDTLIAQLIALLQRDKSRKFIAQQIVRWLESEHPLKAKILPTEWLGEHSAELVSDAVNSLLDDISRDRAHQIRHAFDRATFALIDKLKNDPEMAARADAVKSYLKEDEAFNRYLSELWGDLREWLKVDINSEDSRVKERIARAGQWFGETLIADDALRASLNGHLEQAAHRVAPEFSAFLTRHISDTVKSWDARDMSRQIELNIGKDLQFIRVNGTLVGGCIGLILYLLSQLPALFPLGNF | 5.72 ± 0.23 h |  | 6.12 ± 0.14 h | 5.794 ± 0.016 h | 3.17 ± 0.071 h | 5.3 ± 0.096 h | 12.3 ± 2.3 h | 6.365 ± 0.03 h | 12.37 ± 0.058 h | 5.7 ± 0.39 h | 12.4 ± 1.6 h | 5.6 ± 0.16 h
MNKLQSYFIASVLYVMTPHAFAQGTVTIYLPGEQQTLSVGPVENVVQLVTQPQLRDRLWWPGALLTDSAAKAKALKDYQHVMAQLASWEAEADDDVAATIKSVRQQLLNLNITGRLPVKLDPDFVRVDENSNPPLVGDYTLYTVQRPVTITLLGAVSGAGQLPWQAGRSVTDYLQDHPRLAGADKNNVMVITPEGETVVAPVALWNKRHVEPPPGSQLWLGFSAHVLPEKYADLNDQIVSVLTQRVPD |  |  |  |  |  |  |  |  | 7.71 h |  |  | 
